Data taken from patent US20050163775A1, “Combination therapy for B cell disorders” (Genentech, Inc., priority 2003, published 2005).
Bridges are numbered along the chain shown (N, C = ends). Where no end group is shown, it is not given here.

target: T1, human BAFF (residues 82-285) (human, UniProt Q9Y275 82-285); assay: phage display selection on BAFF
T1 construct: Coated on plates in the ELISAs; also used biotinylated or free in solution for phage sorting; also called BAFF82-285; BLyS82-285
T1 sequence (Q9Y275 82-285): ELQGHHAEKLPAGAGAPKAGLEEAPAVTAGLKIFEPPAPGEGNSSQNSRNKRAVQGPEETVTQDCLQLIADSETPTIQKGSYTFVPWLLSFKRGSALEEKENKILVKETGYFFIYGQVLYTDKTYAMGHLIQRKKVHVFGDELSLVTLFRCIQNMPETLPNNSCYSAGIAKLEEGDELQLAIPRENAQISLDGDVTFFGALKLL

binding result	Binder
binds	ECFDDLVRHWVPCDLLT [SEQ ID NO 131]
binds	ECFDLLVRRWVPCELLV [SEQ ID NO 79]
binds	ECFDLLVRRWVPCSLVK [SEQ ID NO 87]
binds	ECFDLLVRTWVPCQAIL (disulfide 2-13 (inferred)) [SEQ ID NO 71]
binds	ECFDPLVNAWVPCAVLH (disulfide 2-13 (inferred)) [SEQ ID NO 135]
binds	ECFDLLVREWVPCRILQ [SEQ ID NO 85]
binds	ECFDLLVRAWVPCSVLK [SEQ ID NO 94]
binds	ECFDLLVRGWVPCEKLM [SEQ ID NO 73]
binds	ECFDLLVRQWVPCRALM [SEQ ID NO 88]
binds	ECFDPLVRHWVPCRALD [SEQ ID NO 130]
binds	ECFDLLVRSWVPCGTLM [SEQ ID NO 69]
binds	ECFDLLVRQWVSCQVFA (disulfide 2-13 (inferred)) [SEQ ID NO 81]
binds	ECFDSLVNAWVPCHVLT (disulfide 2-13 (inferred)) [SEQ ID NO 142]
binds	ECFDLLVRDWVPCSLLF [SEQ ID NO 90]
binds	ECFDLLVRSWVPCTLLS [SEQ ID NO 91]
binds	ECFDLLVRAWVPCWLRL [SEQ ID NO 74]
binds	ECFDLLVRRWVPCSWLL [SEQ ID NO 86]
binds	ECFDLLVRTWVECSLLN [SEQ ID NO 68]
binds	ECFDLLVRAWVRCDMLL [SEQ ID NO 72]
binds	ECFDVLVNAWVDCAVLR (disulfide 2-13 (inferred)) [SEQ ID NO 128]
binds	ECFDGLVNAWVDCGLLR [SEQ ID NO 129]
binds	ECFDTLVRAWVPCSHLT (disulfide 2-13 (inferred)) [SEQ ID NO 140]
binds	ECFDLLVRGWVDCSLLL [SEQ ID NO 96]

binding result	Binder
binds	ECFDLLVRRWVPCGLLR [SEQ ID NO 75]
binds	ECFDLLVRAWVPCNELR [SEQ ID NO 84]
binds	ECFDLLVRSWVPCYSLK [SEQ ID NO 80]
binds	ECFDLLVRQWVPCERIR [SEQ ID NO 65]
binds	ECFDLLVRSWVPCSSLG [SEQ ID NO 77]
binds	ECFDLLVRKWVPCQVLG [SEQ ID NO 67]
binds	ECFDPLVLRWVPCSALH (disulfide 2-13 (inferred)) [SEQ ID NO 136]
binds	ECFDLLVRAWVPCSYLS [SEQ ID NO 89]
binds	ECFDVLVRAWVPCRALT (disulfide 2-13 (inferred)) [SEQ ID NO 132]
binds	ECFDALVHRWVPCDLLR [SEQ ID NO 137]
binds	ECFDLLVRQWVSCELLS [SEQ ID NO 95]
binds	ECFDPLVRDWVPCDLIH (disulfide 2-13 (inferred)) [SEQ ID NO 138]
binds	ECFDLLVNSWVPCSVIA (disulfide 2-13 (inferred)) [SEQ ID NO 139]
binds	ECFDLLVRQWVPCGALG [SEQ ID NO 83]
binds	ECFDLLVRRWVPCEMLG [SEQ ID NO 66]
binds	ECFDLLVRSWVPCHMLR [SEQ ID NO 70]
binds	ECFDDLVRNWVPCALLN [SEQ ID NO 134]
binds	ECFDLLVRKWVPCSTFH (disulfide 2-13 (inferred)) [SEQ ID NO 92]
binds	ECFDLLVRRWVDCAFLH [SEQ ID NO 76]
binds	ECFDSLVRIWVPCGLID [SEQ ID NO 141]
binds	ECFDLLVRVWVPCSRLY [SEQ ID NO 82]
binds	ECFDLLVRGWVPCSVLQ [SEQ ID NO 93]
binds	ECFDILVNRWVPCGALT (disulfide 2-13 (inferred)) [SEQ ID NO 133]
